Assay [1] addresses T1, human ROR1 'Ig-Frizzled domain' (human, UniProt Q01973).
T1 construct: used plain or biotinylated
The assay can be described thus: ELISA, biotinylated antigen on avidin plate; BCC supernatant.

For assay [2], the target named is T2, human ROR1 'Frizzled-Kringle domain' (human, UniProt Q01973).
T2 construct: used plain or biotinylated
The assay is described as above.

A further assay concerns the target T3, Human ROR1-CHO cells (human, UniProt Q01973).
T3 construct: expressed on the surface of CHO cells; also called human ROR1 on CHO cells
Briefly: FACS; BCC supernatant.

The target in assay [3] is mouse ROR1 (serum titer ELISA antigen) (mouse, UniProt Q9Z139 30-403, limits assumed). Briefly: ELISA, direct coat; BCC supernatant.
Sequence of mouse ROR1 (serum titer ELISA antigen) (Q9Z139 30-403 limits assumed): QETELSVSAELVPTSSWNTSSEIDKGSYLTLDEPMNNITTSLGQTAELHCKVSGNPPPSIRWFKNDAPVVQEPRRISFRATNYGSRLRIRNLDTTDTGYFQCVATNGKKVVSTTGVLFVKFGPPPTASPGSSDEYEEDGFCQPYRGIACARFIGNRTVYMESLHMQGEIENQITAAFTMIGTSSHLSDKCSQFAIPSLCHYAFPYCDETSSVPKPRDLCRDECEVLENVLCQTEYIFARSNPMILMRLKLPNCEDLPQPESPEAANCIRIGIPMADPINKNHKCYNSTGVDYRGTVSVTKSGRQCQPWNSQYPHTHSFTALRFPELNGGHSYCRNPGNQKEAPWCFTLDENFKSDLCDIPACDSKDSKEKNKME
The target in assay [4] is T4, Human ROR2 (human, UniProt Q01974). Briefly: ELISA, direct coat; BCC supernatant.
T4 sequence (Q01974 34-403 limits assumed): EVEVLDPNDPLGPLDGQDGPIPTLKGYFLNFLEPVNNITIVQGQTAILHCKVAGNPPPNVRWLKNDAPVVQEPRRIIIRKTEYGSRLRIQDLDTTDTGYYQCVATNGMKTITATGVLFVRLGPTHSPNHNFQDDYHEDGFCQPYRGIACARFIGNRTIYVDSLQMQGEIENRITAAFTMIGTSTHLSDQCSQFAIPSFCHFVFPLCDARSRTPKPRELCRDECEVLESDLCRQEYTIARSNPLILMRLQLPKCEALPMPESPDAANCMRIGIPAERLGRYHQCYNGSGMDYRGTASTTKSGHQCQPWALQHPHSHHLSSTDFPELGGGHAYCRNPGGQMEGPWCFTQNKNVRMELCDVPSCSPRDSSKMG
Assay [5] addresses T1, human ROR1 'Ig-Frizzled domain'. The assay can be described thus: ELISA, direct coat; BCC supernatant.
The target in assay [6] is T5, recombinant human ROR1 extracellular domain protein (human, UniProt Q01973 30-406).
T5 construct: extracellular domain; Analyte in solution in the Octet assay; also called human ROR1 ECD
T5 sequence (Q01973 30-406): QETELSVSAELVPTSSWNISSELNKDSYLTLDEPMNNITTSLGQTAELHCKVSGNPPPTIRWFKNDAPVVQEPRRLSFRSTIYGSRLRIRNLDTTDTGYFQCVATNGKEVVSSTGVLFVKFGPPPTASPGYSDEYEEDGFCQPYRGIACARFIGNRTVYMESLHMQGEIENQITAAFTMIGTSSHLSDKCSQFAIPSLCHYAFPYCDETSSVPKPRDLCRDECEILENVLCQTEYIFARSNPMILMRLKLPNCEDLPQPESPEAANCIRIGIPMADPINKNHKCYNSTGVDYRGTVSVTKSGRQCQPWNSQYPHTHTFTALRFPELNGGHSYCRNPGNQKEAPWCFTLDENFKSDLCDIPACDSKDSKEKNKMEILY
Briefly: ELISA, direct coat; BCC supernatant.

Assay [7] has as its target T2, human ROR1 'Frizzled-Kringle domain'. Briefly: ELISA, direct coat; BCC supernatant.
Assay [8] has as its target T5, recombinant human ROR1 extracellular …. Briefly: Octet, monovalent binding to human ROR1.
For assay [9], the target named is T4, Human ROR2. Briefly: Octet.
The target of assay [10] is T2, human ROR1 'Frizzled-Kringle domain'. Briefly: Octet.
The target in assay [11] is T5, recombinant human ROR1 extracellular …. Briefly: Octet, bi-valent binding to human ROR1.
Assay [12] shares this target. Briefly: Octet, mono-valent binding to human ROR1. The text has this:
The heavy and light chain expression plasmids generated from each well were transiently co-transfected to produce rabbit/human chimeric antibodies. Recombinant antibody supernatants were confirmed to contain anti-ROR1 antibodies using bio-layer interferometry analysis on a ForteBio Octet Red 96 instrument. Anti-human Fc biosensors (Pall ForteBio) were used to capture antibodies in the supernatants. Association to ROR1 was observed by real-time interferometry by placing the biosensors in wells containing recombinant human ROR1 extracellular domain protein. Dissociation was measured after transfer of the biosensors into wells containing 10× kinetics buffer (Pall ForteBio). The software provided by the manufacturer was used to analyze the interferometry data.

T2 sequence (Q01973 165-406 limits assumed): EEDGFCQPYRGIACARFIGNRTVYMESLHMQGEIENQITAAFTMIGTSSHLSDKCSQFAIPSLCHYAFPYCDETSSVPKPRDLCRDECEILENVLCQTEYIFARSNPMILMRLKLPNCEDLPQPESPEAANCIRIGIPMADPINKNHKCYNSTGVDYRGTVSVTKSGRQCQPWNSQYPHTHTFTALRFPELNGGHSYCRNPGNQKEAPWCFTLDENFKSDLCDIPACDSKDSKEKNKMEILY
T3 sequence (Q01973 30-937 limits assumed): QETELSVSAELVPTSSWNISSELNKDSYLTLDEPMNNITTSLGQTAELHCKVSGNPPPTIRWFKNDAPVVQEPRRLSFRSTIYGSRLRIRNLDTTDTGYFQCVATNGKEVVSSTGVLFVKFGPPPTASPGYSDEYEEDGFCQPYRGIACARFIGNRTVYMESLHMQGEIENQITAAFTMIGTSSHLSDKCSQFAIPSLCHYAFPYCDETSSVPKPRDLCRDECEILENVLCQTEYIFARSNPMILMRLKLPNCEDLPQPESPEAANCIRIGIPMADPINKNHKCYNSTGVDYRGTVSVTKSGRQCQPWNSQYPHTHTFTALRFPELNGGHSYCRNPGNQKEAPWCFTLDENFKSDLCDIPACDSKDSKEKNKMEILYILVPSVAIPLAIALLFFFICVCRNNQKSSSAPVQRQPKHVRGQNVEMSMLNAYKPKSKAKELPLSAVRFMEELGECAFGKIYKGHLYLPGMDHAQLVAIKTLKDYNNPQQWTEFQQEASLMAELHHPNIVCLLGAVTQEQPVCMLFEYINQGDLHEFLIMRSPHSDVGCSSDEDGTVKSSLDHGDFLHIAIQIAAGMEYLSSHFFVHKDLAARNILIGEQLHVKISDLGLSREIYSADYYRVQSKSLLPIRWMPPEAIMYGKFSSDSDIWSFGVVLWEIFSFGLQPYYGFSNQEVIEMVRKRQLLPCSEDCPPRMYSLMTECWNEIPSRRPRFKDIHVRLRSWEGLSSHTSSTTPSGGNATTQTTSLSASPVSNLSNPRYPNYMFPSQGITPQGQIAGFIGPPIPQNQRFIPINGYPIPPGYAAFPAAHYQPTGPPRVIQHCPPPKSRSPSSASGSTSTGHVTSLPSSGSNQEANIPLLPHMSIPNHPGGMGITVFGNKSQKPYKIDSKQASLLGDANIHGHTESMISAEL
T1 sequence (Q01973 30-305 limits assumed): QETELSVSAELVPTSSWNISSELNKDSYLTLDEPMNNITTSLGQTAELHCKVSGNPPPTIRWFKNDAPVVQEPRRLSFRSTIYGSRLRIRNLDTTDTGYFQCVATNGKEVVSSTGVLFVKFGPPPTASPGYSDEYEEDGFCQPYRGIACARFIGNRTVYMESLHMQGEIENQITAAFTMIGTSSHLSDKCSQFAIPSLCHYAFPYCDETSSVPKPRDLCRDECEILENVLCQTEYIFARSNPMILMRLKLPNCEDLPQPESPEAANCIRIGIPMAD

B1: 324C7 (antibody, V domains shown)
VH: QSVEESGGRLVTPGTPLTLTCTVSGFSLSGAGVSWVRQAPGKGLEWIGYIDSGATTYYASWAKGRFTISKASTTVDLKIASPTTEDTATYFCARGYYGMDPWGQGTLVTVSS
VL: DIVMTQTPASVEVAVGGTVTIKCQASQNIGSDLAWYQQKPGQPPKLLIYTTSNLASGVPSRFKGSGSGTGFTLTISDLECADAASYCCQGGYFSGRNIYGNAFGGGTEVVVK
notes: chimeric counterpart m4; also called rabbit IgG of BCC well 324C7
In the case of B1, the “ELISA OD450” value in assay [1] was found to be 2.67 OD450; in assay [2], 0.13 OD450; in assay [3], 0.21 OD450; with Human ROR2 [4], 0.18 OD450; in assay [5], 2.46 OD450; in assay [6], 2.74 OD450. The “ELISA OD450” value in [7] was 0.13 OD450. Further, the “FACS MFI” value with Human ROR1-CHO cells stood at 190 MFI. In assay [3], the binding result was “no binding”.

B2: 323D10 humanized antibody (antibody, human IgG1, kappa, V domains shown)
VH: EVQLVESGGGLVQPGGSLRLSCTASGFSLSRNAMNWVRQAPGKGLEYIGYISTSGTTFYANSVKGRFTISKDNTKNTVDLQMNSLRAEDTAVYYCARDYNYAMDIWGQGTLVTVSS
VL: AIDLTQSPSTLSASVGGTITINCQASESISSWLAWYQQKPGKAPKLLIYETSKLASGVPSRFSGSGSGTEFTLTISSLQPDDFATYYCQSYYRINNIGYDNAFGGGTKVEIKR
notes: Human gamma-1 and human kappa constant domains
For the molecule B2, in assay [8], the dissociation rate constant (koff) turned out to be 0.00424 s⁻¹.

B3: 324C6 (antibody, V domains shown)
VH: QSLEESGGRLVTPGTPLTLTCTASGFSLSRYYMTWVRQAPGKGLEWIGTIYTSGSTWYASWTKGRFTISKTSTTVDLKITSPTTEDTATYFCARSYYGGDKTGLGIWGPGTLVTVSS
VL: DVVMTQTPASVEAAVGGTVTIKCQASQSIDSWLSWYQQKPGQPPKLLIYQASTLASGVSSRFKGSGSGTEFTLTISDLECADAATYYCQCAYGVSGTSSYLYTFGGGTEVEVK
notes: chimeric counterpart m7; also called rabbit IgG of BCC well 324C6
For the molecule B3, the “ELISA OD450” value in the assay with Human ROR2 [4] turned out to be 0.17 OD450.

B4: 324C6 chimeric rabbit/human IgG antibody (antibody, V domains shown)
VH: B3 VH
VL: DVVMTQTPASVEAAVGGTVTIKCQASQSIDSWLSWYQQKPGQPPKLLIYQASTLASGVSSRFKGSGSGTEFTLTISDLECADAATYYCQCAYGVSGTSSYLYTFGGGTEVEVKR
notes: Rabbit variable regions on human gamma-1 and human kappa constant domains
As for B4, the binding result in the assay with Human ROR2 [9] is listed as “no binding”.

B5: 330F11 humanized antibody (antibody, human IgG1, kappa, V domains shown)
VH: EVQLVESGGGLVQPGGSLRLSCAASGFSLNNYWMSWVRQAPGKGLEWIGTISSGAYTWFATWATGRFTISRDNSKNTLYLQMNSLRAEDTAVYYCARYSSTTDWTYFNIWGQGTLVTVSS
VL: DIQMTQSPSTLSASVGDRVTITCQASQSINNYLAWYQQKPGKAPKLLIYRASTLESGVPSRFSGSGSGTEFTLTISSLQPDDFATYYCQSYNGVGRTAFGGGTKVEIKR
notes: as for B2
As to B5, the koff in [8] was 0.0297 s⁻¹.

B6: 324E2 humanized antibody (antibody, human IgG1, kappa, V domains shown)
VH: QSVEESGGGLVQPGGSLRLSCTASGFSLSNNAITWVRQAPGKGLEYIGIISSSGTTYYASSAKGRFTISKDTSKNTVDLQMNSLRAEDTAVYYCAGAFSVWGQGTLVTVSS
VL: DIQMTQSPSSLSASVGDRVTITCQSSQSVNNNDLAWYQQKPGKAPKRLIYWASKLASGVPSRFSGSGSGTEFTLTISNLQPEDFATYYCAGGYSGNIYGFGGGTKVEIKR
notes: as for B2
As for B6, the koff in [8] is 0.0061 s⁻¹.

B7: 338H4 humanized antibody (antibody, human IgG1, kappa, V domains shown)
VH: EVQLVESGGGLVQPGGSLRLSCTASGFSLSSYAMSWVRQAPGRGLEWIGIIYASGSTYYASSAKGRFTISKDNTKNTVDLQMNSLRAEDTAVYYCARIYDGMDLWGQGTLVTVSS
VL: DIQMTQSPSSLSASVGDRVTINCQASQNIYSYLSWYQQKPGKVPKRLIYLASTLASGVPSRFSGSGSGTDYTLTISSLQPEDVATYYCQSNYNGNYGFGGGTKVEIKR
notes: as for B2
As for B7, in assay [8], the koff is 0.00238 s⁻¹.

B8: 330F11 (antibody, V domains shown)
VH: QSVEESGGRLVTPGTPLTLTCTVSGFSLNNYWMSWVRQAPGEGLEWIGTISSGAYTWFATWATGRFTISKTSTTVDLSITSPTTEDTATYFCARYSSTTDWTYFNIWGPGTLVTVSS
VL: DVVMTQTPASVEAAVGGTVTIKCQASQSINNYLAWYQQKPGQPPKLLIYRASTLESGVPSRFKGSGSGTQFTLTISDLECADAATYYCQSYNGVGRTAFGGGTEVEFK
notes: chimeric counterpart m9; also called rabbit IgG of BCC well 330F11
Regarding B8, the “ELISA OD450” value in [1] stood at 0.15 OD450; in [2], 1.71 OD450; in assay [3], 4 OD450; with Human ROR2 [4], 0.25 OD450; in [5], 0.28 OD450; in assay [6], 0.98 OD450. In assay [7], the “ELISA OD450” value was 1.98 OD450. Also, in the assay with Human ROR1-CHO cells, the “FACS MFI” value is 5 MFI.

B9: 226E12 humanized antibody (antibody, human IgG1, kappa, V domains shown)
VH: EVQLLESGGGLVQPGGSLRLSCAASGFSLSNYYMSWVRQAPGKGLEWIGAINADSDNTWYPSWVKGRFTISRDNSKNTLYLQMNSLRAEDTAVYYCARSVSNNFAEYNIWGQGTLVTVSS
VL: DIQMTQSPSSLSASVGDRVTITCQASQRIYSYLAWYQQKPGKVPKLLIYRASTLASGVPSRFSGSGSGTDFTLTISSLQPEDVATYYCQQGASMVDVENMFGGGTKVEIKR
notes: as for B2
Regarding B9, the koff in assay [8] turned out to be 0.0415 s⁻¹.

B10: 324E2 chimeric rabbit/human IgG antibody (antibody, V domains shown)
VH: QSVEESGGRLVTPGTPLTLTCTVSGFSLSNNAITWVRQAPGKGLEYIGIISSSGTTYYASWAKGRFTISKTSSTTVDLKMTSLTTEDTATYFCAGAFSVWGPGTLVTVSS
VL: AQVLTQTPSSVSAAVGGTVTINCQSSQSVNNNDLAWFQQKPGQPPKRLIYWASKLASGVPSRFKGSGSGTQFILTISDLECDDAATYYCAGGYSGNIYGFGGGTEVEVKR
notes: as for B4
Regarding B10, the binding result (in the assay with Human ROR2 [9]; in [10]) was “no binding” in each case. The koff in assay [11] came out at 0.00572 s⁻¹.

B11: 323H7 (antibody, V domains shown)
VH: QEQLKESGGGLVTPGGTLTLTCTASGFTISRYHMTWVRQAPGKGLEWIGHIYVNNDDTDYASWAKGRFTISKTSTTVDLKITSPTTEDTATYFCARLDVGGGGAYIGDIWGQGTLVTVSS
VL: QAVVTQTPSSVSAAVGGTVTISCQSSQSVYNNNDLAWYQQKPGQPPKLLIYYASTLASGVSSRFKGSGSGTQFTLAISDLECDDSATYYCAGGYDTDGLDTFAFGGGTEVEVK
notes: chimeric counterpart m3; also called rabbit IgG of BCC well 323H7
As for B11, the “ELISA OD450” value in assay [1] came out at 1.78 OD450; in assay [2], 0.16 OD450; in [3], 0.2 OD450; with Human ROR2 [4], 0.18 OD450; in assay [5], 1.67 OD450; in assay [6], 1.82 OD450. Moreover, the “ELISA OD450” value in assay [7] came to 0.16 OD450. Also, in the assay with Human ROR1-CHO cells, the “FACS MFI” value is 90 MFI. Besides, in assay [3], the binding result is “no binding”.

B12: 338H4 (antibody, V domains shown)
VH: QSVEESGGRLVTPGTPLTLTCTVSGFSLSSYAMSWVRQAPGRGLEWIGIIYASGSTYYASWAKGRFTISKTSTTVDLKITSPTTEDTATYFCARIYDGMDLWGPGTLVTVSS
VL: DIVMTQTPASVSAAVGGTVTINCQASQNIYSYLSWYQQKPGQPPKRLIYLASTLASGVPSRFKSSGSGTEYTLTISDLECDDAATYYCQSNYNGNYGFGGGTEVEVK
notes: chimeric counterpart m8; also called rabbit IgG of BCC well 338H4
Consider B12, for which the “ELISA OD450” value in [1] was 0.22 OD450; in assay [2], 1.8 OD450; in [3], 4 OD450; in the assay with Human ROR2 [4], 0.17 OD450; in assay [5], 2.77 OD450; in assay [6] it was 4 OD450. In [7], the “ELISA OD450” value was 3.01 OD450.

B13: 338H4 chimeric rabbit/human IgG antibody (antibody, V domains shown)
VH: B12 VH
VL: DIVMTQTPASVSAAVGGTVTINCQASQNIYSYLSWYQQKPGQPPKRLIYLASTLASGVPSRFKSSGSGTEYTLTISDLECDDAATYYCQSNYNGNYGFGGGTEVEVKR
notes: as for B4
Consider B13, for which the binding result with Human ROR2 [9] is on record as “no binding”. Besides, the koff in assay [12] came out at 1.17e-08 s⁻¹.

B14: 324C6 humanized antibody (antibody, human IgG1, kappa, V domains shown)
VH: QSLVESGGGLVQPGGSLRLSCTASGFSLSRYYMTWVRQAPGKGLEWIGTIYTSGSTWYASWTKGRFTISKDNTKNTVDLQMNSLRAEDTAVYYCARSYYGGDKTGLGIWGQGTLVTVSS
VL: DIQMTQSPSTLSASVGDRVTITCQASQSIDSWLSWYQQKPGKAPKLLIYQASTLASGVPSRFSGSGSGTEFTLTISSLQPDDFATYYCQSAYGVSGTSSYLYTFGGGTKVEIKR
notes: as for B2
Consider B14, for which the koff in assay [8] was found to be 0.0403 s⁻¹.

B15: 323H7 humanized antibody (antibody, human IgG1, kappa, V domains shown)
VH: EVQLLESGGGLVQPGGSLRLSCAASGFTISRYHMTWVRQAPGKGLEWIGHIYVNNDDTDYASSAKGRFTISRDNSKNTLYLQMNSLRAEDTATYFCARLDVGGGGAYIGDIWGQGTLVTVSS
VL: DIQMTQSPSSLSASVGDRVTITCQSSQSVYNNNDLAWYQQKPGKVPKLLIYYASTLASGVPSRFSGSGSGTDFTLTISSLQPEDVATYYCAGGYDTDGLDTFAFGGGTKVEIKR
notes: as for B2
For B15, in assay [8], the koff turned out to be 0.0007 s⁻¹.
